± gives the uncertainty stated by the source.
Experiment: self-splicing fitness, log relative to wild type (ln ratio); higher = more splicing; Tetrahymena group I intron in knt gene, E. coli kanamycin selection, DiMSum; sequences stand for … in CUCUCU…GGAGGGAAAAGUUAUCAGGCAUGCACCUGGUAGCUAGUCUUUAAACCAAUAGAUUGCAUCGGUUUAAAAGGCAAGACCGUCAAAUUGCGGGAAAGGGGUCAACAGCCGUUCAGUACCAAGUCUCAGGGGAAACUUUGAGAUGGCCUUGCAAAGGGUAUGGUAAUAAGCUGACGGACAUGGUCCUAACCACGCAGCCAAGUCCUAAGUCAACAGAUCUUCUGUUGAUAUGGAUGCAGUUCACAGACUAAAUGUCGGUCGGGGAAGAUGUAUUCUUCUCAUAAGAUAUAGUCGGACCUCUCCUUAAUGGGAGCUAGCGGAUGAAGUGAUGCAACACUGGAGCCGCUGGGAACUAAUUUGUAUGCGAAAGUAUAUUGAUUAGUUUUGGAGUACUCGUGGUCG
How it was run: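 DiMSum derived fitness as the error-weighted combination of fold changes across replicates, kanamycin versus no kanamycin, normalised to wild type. E. coli BL21(DE3) held the library, which randomised all eight P1ex-region intron nucleotides within the knt kanamycin-resistance gene on pET-22b(+). Six replicate transformations grew overnight at 37°C or 30°C on LB agar with or without 25 μg/mL kanamycin, also containing 100 μg/mL carbenicillin, 50 μM IPTG and 0.2% rhamnose, and pooled colonies were amplicon-sequenced on an Illumina HiSeq 2500.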

| Sequence | self-splicing fitness (ln) (30 °C) | self-splicing fitness (ln) (37 °C) |
| --- | --- | --- |
| AUCAAGCAAUAUUACGUUUU | -1.6 ± 0.097 | -0.791 ± 0.12 |
| GGCGAGCAAUAUUACGCCAA |  | -2.45 ± 0.49 |
| UGGUAGCAAUAUUACGCUCU | -2.22 ± 0.2 | -1.31 ± 0.24 |
| UGGUAGCAAUAUUACGAACU | -0.279 ± 0.12 | 0.0176 ± 0.18 |
| UCUAAGCAAUAUUACGGCGU | -2.01 ± 0.11 | -0.795 ± 0.11 |
| UGCAAGCAAUAUUACGCUAA | -2.73 ± 0.17 | 0.000151 ± 0.11 |
| CAGCAGCAAUAUUACGGAUU | -3 ± 0.14 | -1.64 ± 0.13 |
| CAUGAGCAAUAUUACGUUGU | -4.13 ± 0.29 | -3.57 ± 0.19 |
| AAUCAGCAAUAUUACGUGCU | -3.39 ± 0.17 | -2.56 ± 0.17 |
| CAGGAGCAAUAUUACGUCGU |  | -1.97 ± 0.37 |
| ACAAAGCAAUAUUACGCUGA | -2.65 ± 0.2 | -1.14 ± 0.15 |
| UCAAAGCAAUAUUACGCGCU | -3.63 ± 0.47 | -2.53 ± 0.45 |
| ACUAAGCAAUAUUACGACAC | -0.549 ± 0.1 | -0.813 ± 0.13 |
| GUCUAGCAAUAUUACGCUCU | -0.178 ± 0.13 | 1.05 ± 0.15 |
| GUUUAGCAAUAUUACGCCAC | -1.72 ± 0.46 |  |
| CCCUAGCAAUAUUACGAUCG | -3.91 ± 0.35 | -1.47 ± 0.18 |
| CUCUAGCAAUAUUACGCUGG | -3.13 ± 0.23 | -1.51 ± 0.32 |
| CGUGAGCAAUAUUACGACAG | -0.792 ± 0.092 | -0.318 ± 0.1 |
| ACCCAGCAAUAUUACGGCGA | -0.786 ± 0.076 | 0.532 ± 0.096 |
| CCGGAGCAAUAUUACGAGAC | -2.99 ± 0.38 |  |
| AUGCAGCAAUAUUACGCUUU | -2.72 ± 0.11 | -1.75 ± 0.11 |
| CAACAGCAAUAUUACGAAUC | -3.47 ± 0.13 | -2.41 ± 0.14 |
| GUUAAGCAAUAUUACGCGAG | -0.369 ± 0.1 | -0.341 ± 0.14 |
| UAGCAGCAAUAUUACGCACA | -0.126 ± 0.072 | 0.0233 ± 0.11 |
| ACCUAGCAAUAUUACGUUAC | -3.6 ± 0.21 | -3.13 ± 0.23 |

| Sequence | self-splicing fitness (ln) (30 °C) | self-splicing fitness (ln) (37 °C) |
| --- | --- | --- |
| GAAGAGCAAUAUUACGUGAC | -3.21 ± 0.22 | -1.72 ± 0.18 |
| ACUAAGCAAUAUUACGUGGA | -2.99 ± 0.14 | -1.49 ± 0.11 |
| AUCCAGCAAUAUUACGGGGC | -2.89 ± 0.14 | -2.82 ± 0.26 |
| GGGCAGCAAUAUUACGCACU | -1.6 ± 0.32 | -1.42 ± 0.24 |
| GUUUAGCAAUAUUACGUUCU | -1.41 ± 0.14 | -0.628 ± 0.17 |
| UCAAAGCAAUAUUACGAAUG | -1.71 ± 0.11 | -1.67 ± 0.25 |
| UGUUAGCAAUAUUACGGGAG | -3.62 ± 0.25 | -3.42 ± 0.25 |
| CUUCAGCAAUAUUACGCGCA | -1.93 ± 0.29 | 0.383 ± 0.28 |
| GGAGAGCAAUAUUACGACUU | -2.58 ± 0.19 | -0.744 ± 0.16 |
| CAAUAGCAAUAUUACGUAUA | -3.6 ± 0.22 | -2.58 ± 0.19 |
| GUAUAGCAAUAUUACGUAGC | -3.22 ± 0.19 | -1.46 ± 0.14 |
| CACCAGCAAUAUUACGCUAG | -1.49 ± 0.068 | -0.153 ± 0.079 |
| GUCUAGCAAUAUUACGACAC | -0.746 ± 0.13 | -0.011 ± 0.11 |
| GUCAAGCAAUAUUACGACAC | -0.691 ± 0.12 | -0.114 ± 0.14 |
| CAUGAGCAAUAUUACGAAAA | -3.45 ± 0.34 | -1.22 ± 0.2 |
| AGCAAGCAAUAUUACGCACU | -1.89 ± 0.11 | -1.37 ± 0.14 |
| CAAGAGCAAUAUUACGUUGU | -5.35 ± 0.45 | -2.26 ± 0.22 |
| CUAGAGCAAUAUUACGCCUC | -3.5 ± 0.2 | -2.88 ± 0.34 |
| ACUUAGCAAUAUUACGCCAA | -3.19 ± 0.29 | -2.17 ± 0.28 |
| UCAAAGCAAUAUUACGCCCU | -3.06 ± 0.44 | -0.887 ± 0.18 |
| CCUCAGCAAUAUUACGGGAU | -4.21 ± 0.2 | -2.55 ± 0.17 |
| GCUUAGCAAUAUUACGCGUC | -0.947 ± 0.13 | -0.88 ± 0.13 |
| UGUCAGCAAUAUUACGCAAA | -0.635 ± 0.11 | -0.0477 ± 0.12 |
| AACUAGCAAUAUUACGAAAC | -3.3 ± 0.21 | -2.94 ± 0.3 |

Reference: the supplement of paper PMC7877785
